Measured values as given in publication PMC7732191 (Science Advances, 2020).

Target: the molecule itself
Test: cryo-EM structure

B1: full-length human KCC2a (potassium-chloride cotransporter 2, SLC12A5) (natural protein, UniProt Q9H2X9-1 1-1139, looked up)
chain: MSRRFTVTSLPPAGPARSPDPESRRHSVADPRHLPGEDVKGDGNPKESSPFINSTDTEKGKEYDGKNMALFEEEMDTSPMVSSLLSGLANYTNLPQGSREHEEAENNEGGKKKPVQAPRMGTFMGVYLPCLQNIFGVILFLRLTWVVGIAGIMESFCMVFICCSCTMLTAISMSAIATNGVVPAGGSYYMISRSLGPEFGGAVGLCFYLGTTFAGAMYILGTIEILLAYLFPAMAIFKAEDASGEAAAMLNNMRVYGTCVLTCMATVVFVGVKYVNKFALVFLGCVILSILAIYAGVIKSAFDPPNFPICLLGNRTLSRHGFDVCAKLAWEGNETVTTRLWGLFCSSRFLNATCDEYFTRNNVTEIQGIPGAASGLIKENLWSSYLTKGVIVERSGMTSVGLADGTPIDMDHPYVFSDMTSYFTLLVGIYFPSVTGIMAGSNRSGDLRDAQKSIPTGTILAIATTSAVYISSVVLFGACIEGVVLRDKFGEAVNGNLVVGTLAWPSPWVIVIGSFFSTCGAGLQSLTGAPRLLQAISRDGIVPFLQVFGHGKANGEPTWALLLTACICEIGILIASLDEVAPILSMFFLMCYMFVNLACAVQTLLRTPNWRPRFRYYHWTLSFLGMSLCLALMFICSWYYALVAMLIAGLIYKYIEYRGAEKEWGDGIRGLSLSAARYALLRLEEGPPHTKNWRPQLLVLVRVDQDQNVVHPQLLSLTSQLKAGKGLTIVGSVLEGTFLENHPQAQRAEESIRRLMEAEKVKGFCQVVISSNLRDGVSHLIQSGGLGGLQHNTVLVGWPRNWRQKEDHQTWRNFIELVRETTAGHLALLVTKNVSMFPGNPERFSEGSIDVWWIVHDGGMLMLLPFLLRHHKVWRKCKMRIFTVAQMDDNSIQMKKDLTTFLYHLRITAEVEVVEMHESDISAYTYEKTLVMEQRSQILKQMHLTKNEREREIQSITDESRGSIRRKNPANTRLRLNVPEETAGDSEEKPEEEVQLIHDQSAPSCPSSSPSPGEEPEGEGETDPEKVHLTWTKDKSVAEKNKGPSPVSSEGIKDFFSMKPEWENLNQSNVRRMHTAVRLNEVIVKKSRDAKLVLLNMPGPPRNRNGDENYMEFLEVLTEHLDRVMLVRGGGREVITIYS
modifications: N-acetylglucosamine (glycosylation) at multiple Asn residues of the ECD
stoichiometry N: 2
